Laboratory results published in patent US10464978B2, “Peptides and combination of peptides for use in immunotherapy against ovarian cancer and other cancers” (immatics biotechnologies GmbH, priority 2015, dated 2019).

These substances were tested against HLA-A*02:01 (Homo sapiens, UniProt P04439, D140Y/D185E/D98H/E176V/E277Q/G131W/G231S/I119V/I121R/I166T/I218V/L300P/L318F/N151K/N90K/P208A/P217A/Q86G/Q94H/R138H/R169H/T345S) (assay: MHC binding assay: UV-ligand exchange with beta2m ELISA (peptide exchange yield)). Conditions: binding to HLA-A*02:01.
Outline: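 Values give exchange yield, measured by β2m ELISA: 100-fold-diluted monomers bound to streptavidin plates (1h, 37° C), probed with HRP anti-β2m at 2 ug/ml and read at 450 nm after TMB. Monomers came from UV-triggered cleavage of a photolabile peptide and exchange for the test peptide.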

Substance | Peptide exchange (MHC class I binding score, peptide exchange yield)
361 (ALYELEGTTV; listed as Homo sapiens) [compound 361] | “+++” (≥50 = +++)
136 (YLADPSNLFVV; listed as Homo sapiens) [compound 136] | “+++” (≥50 = +++)
505 (SLAPGDVVRQV; listed as Homo sapiens) [compound 505] | “++” (≥20% = ++)
471 (YLYNNMIAKI; listed as Homo sapiens) [compound 471] | “+++” (≥50 = +++)
196 (YLYSVEIKL; listed as Homo sapiens) [compound 196] | “++++” (≥75% = ++++)
510 (KLYSVVSQL; listed as Homo sapiens) [compound 510] | “++” (≥20% = ++)
318 (GLINTGVLSV; listed as Homo sapiens) [compound 318] | “++” (≥20% = ++)
610 (LLAPTPYIIGV; listed as Homo sapiens) [compound 610] | “+++” (≥50 = +++)
164 (ALLPQPKNLTV; listed as Homo sapiens) [compound 164] | “+++” (≥50 = +++)
393 (GLLDTQTSQVLTA; listed as Homo sapiens) [compound 393] | “++” (≥20% = ++)
128 (YLFDDPLSAV; listed as Homo sapiens) [compound 128] | “++” (≥20% = ++)
475 (LLLNEEALAQI; listed as Homo sapiens) [compound 475] | “+++” (≥50 = +++)
221 (ALYEEGLLL; listed as Homo sapiens) [compound 221] | “++” (≥20% = ++)
580 (LLMENAERV; listed as Homo sapiens) [compound 580] | “++” (≥20% = ++)
593 (GLPRFGIEMV; listed as Homo sapiens) [compound 593] | “+++” (≥50 = +++)
487 (LLINSVFHV; listed as Homo sapiens) [compound 487] | “+++” (≥50 = +++)
118 (KLIDNNINV; listed as Homo sapiens) [compound 118] | “+++” (≥50 = +++)
557 (KLYDDMIRL; listed as Homo sapiens) [compound 557] | “+++” (≥50 = +++)
446 (QLIPALAKV; listed as Homo sapiens) [compound 446] | “+++” (≥50 = +++)
585 (ALWDLAADKQTL; listed as Homo sapiens) [compound 585] | “++++” (≥75% = ++++)
133 (KVLSNIHTV; listed as Homo sapiens) [compound 133] | “++” (≥20% = ++)
59 (IMEDIILTL; listed as Homo sapiens) [compound 59] | “+++” (≥50 = +++)

Substance | Peptide exchange (MHC class I binding score, peptide exchange yield)
602 (YLLEQIKLIEV; listed as Homo sapiens) [compound 602] | “++++” (≥75% = ++++)
468 (YLRSVGDGETV; listed as Homo sapiens) [compound 468] | “+++” (≥50 = +++)
19 (FMVDNEAIYDI; listed as Homo sapiens) [compound 19] | “++++” (≥75% = ++++)
135 (ALSEVDFQL; listed as Homo sapiens) [compound 135] | “+++” (≥50 = +++)
60 (SLTIDGIYYV; listed as Homo sapiens) [compound 60] | “++++” (≥75% = ++++)
373 (SLLEDKGLAEV; listed as Homo sapiens) [compound 373] | “++” (≥20% = ++)
339 (GLWEIENNPTVKA; listed as Homo sapiens) [compound 339] | “++++” (≥75% = ++++)
511 (FLDPYCSASV; listed as Homo sapiens) [compound 511] | “++” (≥20% = ++)
246 (LLWEVVSQL; listed as Homo sapiens) [compound 246] | “+++” (≥50 = +++)
116 (YHIDEEVGF; listed as Homo sapiens) [compound 116] | “+” (≥10% = +)
131 (FVPPVTVFPSL; listed as Homo sapiens) [compound 131] | “++” (≥20% = ++)
512 (SLSEIVPCL; listed as Homo sapiens) [compound 512] | “+++” (≥50 = +++)
94 (YLIDIKTIAI; listed as Homo sapiens) [compound 94] | “++” (≥20% = ++)
175 (YLFENISQL; listed as Homo sapiens) [compound 175] | “+++” (≥50 = +++)
497 (GLLEKLTAI; listed as Homo sapiens) [compound 497] | “+++” (≥50 = +++)
620 (KLLNKIYEA; listed as Homo sapiens) [compound 620] | “++++” (≥75% = ++++)
335 (YSLSSVVTV; listed as Homo sapiens) [compound 335] | “+++” (≥50 = +++)
439 (YLLQEIYGI; listed as Homo sapiens) [compound 439] | “+++” (≥50 = +++)
517 (LLMPIPEGLTL; listed as Homo sapiens) [compound 517] | “+++” (≥50 = +++)
161 (ALLEGVNTV; listed as Homo sapiens) [compound 161] | “+++” (≥50 = +++)
285 (QLLHVGVTV; listed as Homo sapiens) [compound 285] | “+++” (≥50 = +++)
574 (YLLQEPPRTV; listed as Homo sapiens) [compound 574] | “++” (≥20% = ++)

Substance | Peptide exchange (MHC class I binding score, peptide exchange yield)
63 (YLLPSGGSVTL; listed as Homo sapiens) [compound 63] | “++” (≥20% = ++)
47 (ILLSVPLLVV; listed as Homo sapiens) [compound 47] | “++” (≥20% = ++)
489 (KMWEELPEVV; listed as Homo sapiens) [compound 489] | “+++” (≥50 = +++)
526 (RLAEVGQYEQV; listed as Homo sapiens) [compound 526] | “++” (≥20% = ++)
317 (SLAALVVHV; listed as Homo sapiens) [compound 317] | “+++” (≥50 = +++)
310 (FLVDTPLARA; listed as Homo sapiens) [compound 310] | “++++” (≥75% = ++++)
352 (SLLELLHIYV; listed as Homo sapiens) [compound 352] | “+++” (≥50 = +++)
108 (ALFPGVALLLA; listed as Homo sapiens) [compound 108] | “++++” (≥75% = ++++)
88 (FLLVGDLMAV; listed as Homo sapiens) [compound 88] | “+++” (≥50 = +++)
174 (ALAQYLITA; listed as Homo sapiens) [compound 174] | “+++” (≥50 = +++)
262 (LLWGDLIWL; listed as Homo sapiens) [compound 262] | “+++” (≥50 = +++)
354 (LILEGVDTV; listed as Homo sapiens) [compound 354] | “++” (≥20% = ++)
379 (IMEGTLTRV; listed as Homo sapiens) [compound 379] | “++” (≥20% = ++)
466 (VLIANLEKL; listed as Homo sapiens) [compound 466] | “++++” (≥75% = ++++)
115 (AIAGAGILYGV; listed as Homo sapiens) [compound 115] | “++” (≥20% = ++)
550 (FLYDEIEAEVNL; listed as Homo sapiens) [compound 550] | “+++” (≥50 = +++)
14 (AAYGGLNEKSFV; listed as Homo sapiens) [compound 14] | “+++” (≥50 = +++)
390 (ALFMKQIYL; listed as Homo sapiens) [compound 390] | “+++” (≥50 = +++)
355 (SIQQSIERLLV; listed as Homo sapiens) [compound 355] | “++” (≥20% = ++)
126 (VLAYFLPEA; listed as Homo sapiens) [compound 126] | “++++” (≥75% = ++++)
382 (ALQNYIKEA; listed as Homo sapiens) [compound 382] | “++” (≥20% = ++)
227 (ALMNTLLYL; listed as Homo sapiens) [compound 227] | “++” (≥20% = ++)
